Assay: label from the status in PepcDB records

| Sequence | protein production |
| --- | --- |
| MAIQKGDFIKLNYTGRFEDGRIFDTTDEELAKKEEIFNPRGLYGGDVVIVGAGHTIEGLDEDLEGKEAGYSSTVTIPPEKAFGLSNSKLVETVSITKFQDRNVHPGLPVELEGKRGVVSRVIGRKVTVDFNSPLAGKTVSYEYTIEKLLEDDVEMIQGLLALYTGMRDMEVEITDGVAKIYVPTGLTFNQRWLMAKNRVVSELFKYAGLKEVQLIEKLTAEAEAPVPAEPEVEAEAEAEAEVEAEVKEETSESHE | failed |
| MEKKILKPLRKTVSELLCVICTSLLLISLFSFTALAGDINTSPNINSDDKISASVVSKLTEISGDEQIPVIITLPNQKIAFNTAAGKYQIESEQKNLIKFLENEKSKNKVNKIKPIKIINAVAAKVNPEVLASLAGRSDVSKIELDEVVSIVGQSEPSFKKIAASTTLSTAASTNAWGVDKIDAPAVWQQGINGKGITVAVVDTGIDATHPDLDDLDDNPSTNDPKVVGWVDYINSQSSAYDDNGHGTHVAGIVSGTGDNGIQTGVAPGTKLLVAKVFDSEGDGYLSTCILGFEWAVNNNARIISFSGGSPEHDSLFTTMINKVVAAGVVPVIAAGNDGDGSGTITCPGDELNSLTVGATDSSDAIADFSSRGPVTLDDQTYIKPDISAPGVSIPSTYPGDGYAYGDGTSMAAPHVSGTVALILEKKPTMTPAEVKKELESTAVDLGSAGKDNDYGSGRIDAYDAVFGKGPVANFYAKPTSGKVPLTVAFTDTSTGTPTKWRWNFGDGSKSFLQNPKHKYSKAGTYTVNLTVKNAKGKNTVTKTDYIVVISKPTAAFSASPTSGKAPLTVAFTDKSSGNPTAWKWSFGDGTISREKNPTHQYLQEGKYKITLTVSNAAGKSTTKKINYIKVTTNTRPGIYSESK | failed |
| QKVKTIFPHTAGNNKTLLSFAQGDVLTLLIPEEKDGWLYGEHDTTKARGWFPSSYTKLL | not failed |
| MSNACLASSLLSVCFRLSTERSAMSTSRLRPRCLSVLLAALLLWGGLPTASAQPQRAVRADTLYTMTGDPIENGVVLIENETIAAVGPTSEVDVPASAEVHKASVVTPGLIDPRGTVGLSGIYNVPADQDQLDTSEPMQPALRALDAYNPREQLVSFVQQLGFTTVHTGHAPGALISGQTATFSTAGTTVEASLRDSITTVAFTLGPDAQARFESPGTRAKGVAMLRQALHDAQAAMDGGEPEGGDLGQDVLQDVLRGEVPALITAHRAHDIQTALRLQEEFGFDLILDGAAEAYLMTEEIAEADVPVILHPTMARPSGTTQNAAFTTAGVLHDAGVPVAIQTGWEPYVPKTRIALYEAAIAMAHGLPREAALASITREAAEILGLDNVGTVAPGQRADLALFDGDPFEYTTHVCTVLSGGEVVSDECK | failed |
| MHVQEWLDTVPAAAVYAVVGLVIGLESLGIPLPGEIILVSAALLSSQHGGIDPLVLGACASAGAVIGDSIGYAIGRKGGRPLLAWLGGKFPRHFGEGHVATAERSFQKWGMWAVFFGRFVALLRIFAGPLAGVLRMPYWKFLIANVLGGIVWAGGTTAVIYYVGVVAEDWLKRFSWLGLVVAVLIGIASMLIVKRRAGKAQQTPEPVAAGE | failed |
| VSGFQRLQKPVVSQPDFRRQPVSETMQVYLKQAADPGRDVGLYWMATDFENRRFPGKVSPSGFQKLYRQWRNQTGWDAYVQSCRAIWNDVKYFPIPQSLDDTEDKISYVDSWMFERNYGGKRGHEGTDIMAEKNTPGYYPVVSMTDGVVTEKGWLEKGGWRIGITAPTGAYFYYAHLDSYAELEKGDPVKAGDLLGYMGDSGYGEEGTTGEFPVHLHLGIYLKEGTEEISVNPYPVLRYAENARIKCVYSR | not failed |
| MLPHYKQQAVIDSGLAAVGFRPENQRIYPNGSLAAHILGAVDIDNFGIAGIEKWIDANWLADLRGAGLALKGRDLQPVELSIDLRVQYAMEQELGKAVKKFGAAAGAGLLLDVTNGEILALASYPAFDPNNPVDAFKPDRINRVTAGVFEMGSTFKALTTAMALESGRFDLESVVDASRPLSFGRQRIHDYRGKYRPLTVPEAFIHSSNIVMAKMAMTLGPEALRTFLGRFGVLSQLATELPESAAPLRPSSWSEVTTATVSFGHGIAVTPLQASMAVAALANGGRLIRPTFIKDSPVSERTIAESLLSANTSEAIRHLLRLNAAVGSATKADVPGYVIGGKTGTAEKVVQGRYSKVLNVTSFMGIVPADNPRYLLLTLLDEPRGLAETYGNRTSGWNAVPLGGALLHRILPMLLKPVFPSPSSAEAVPVATGEPSVDDSSSD | failed |
| MLIILFLIQMILIVKALGLKGLFIFLALIFGLFVLCKVSLKVKLPRNKYSKVTWEDMPWLYDGVARMANKARISTPNIYIEDNPIPTAYSFQNSIVLSAGLLEILNEEEVLAVAAHEIGHIKNGDTVLFPLLRYGKYIMGIITAIIVIFATGFITKVVSFLVFVIYAFSLLKFLRKREFLADRVALQIAEVPYALKSALEELKFYEEALKTKEMPLPTIQPSIRREEKREPQIFPLPSTHPSYDERIARIIAIVEMYRRLEFLN | failed |
| MSVADSYFDELFRNNDDPWAFKQRWYERRKRALTLAALPRERYRAIFEPGCANGELSADLAERCDMLVCCDTSTQAVELARQRLADVPHARVVQARLPHQWPAGQFDLIVFSELGYYLDAADLHRLIDCALAALSPDGQLLACHWRPDIEGCPLNAQAVHAILAERLSMHRLFSHHEQDFLLDLWSRDGLEHHHHHH | failed |
| MGDKEESKKFSANLNGTEIAITYVYKGDKVLKQSSETKIQFASIGATTKEDAAKTLEPLSAKYKNIAGVEEKLTYTDTYAQENVTIDMEKVDFKALQGISGINVSAEDAKKGITMAQMELVMKAAGFKEVKLEHHHHHH | not failed |
| MGQLPPRARAFFAAQRPLRVLMPGCGSAADLPPLLAMGHDVLAVDFSEAAIELAARQWPEAAGRLLLADFFQLQMPAFDCLFERAFLCALPVGMRSQYAERVAALIAPGGALAGVFFVADTERGPPFGMQAEALRELLSPWFELEEDLALDESVAVFRNRERWMVWRRRGLEHHHHHH | failed |
| MYGIQTSASLPLTRPQALETQAAAPQSDAPDASAGQTRAAPQGSAAPALAAARAKADELGQAAREVRASVERQTAYETRLAAQRSAAAFSGGEPPQARREAPGAELDEARNAQTVSARLFEGNLKGVAQSGHAMSAEQKQALQSGLDDVFADAPPQARSAGAPMLYSANAAAGQGMADSDLWDMISDQIGKIKDNYLGVYENVVGQYTDFYKAFSDILSQMANWIKPGGDGNKVKLNVDALKAALEKLKKDFSLGDNLDNKKAVLFPAQSKDGGIQGGSESDARKWAKEMGLPDAPPPGFSCVQKAADGNWVVVVDMTPIDTMIRDVGALGSGTELELDNAKFQAWQSGFKAQEENLKNTLQTLTQKYSNANSLFDNLVKVLSSTISSCLETAKSFLQILEHHHHHH | not failed |
| RNFLNNQQIRAQVHRRILEQLPTEGEIVLLGHSLGSVIAADLLRRLPPELTVKGFVTIGSPLANGQFNVDDLFKLLRTPLSNVSWWVNFWSGS | failed |
| MAKYFGTDGIRGEVANSTITVEFTQKLGNAVGSLINQKNYPKFVIVGQDTRSSGGFLKFALVSGLNAAGIDVLDLGVVPTPVVAFMTVKHRAAAGFVITASHNKFTDNGIKLFSSNGFKLDDALEEEVEDMIDGDFIYQPQFKFGSYKILANAIDEYIESIYSRFAKFVNYKGKVVVDCAHGAASHNFEALLDKFGINYVSIASNPDGLNINVGCGATCVSNIKKAVKEQKADLGISLDGDADRIIIVDENGQEIDGDGILNILAQYSDICGGTNGIVGTQMTNMSYENHYRANKIPFIRSKVGDRYVLEDLVKYGYKIGGESSGHVINLNFGTTGDGLFTAIQLLAIFSQADKPVSEFKLQGELMQQTLINVPLTKKVAREDLQKVASDVNDVEKRLGNRGRVLLRPSGTEPVLRVMVEADDKSLATNEAEYLVEKVKQKLV | not failed |
| MQKTLTSAIDIPEQMQNDWQNMLDILSNVINVPAALIMRIYDNDIKVFSSSSSTENPYIKGATEKLNQGLYCETVIEERQELTVFNALVDPEWRSNPDLKQNMIAYCGLPLYWPDNTPFGTLCILDKKENHFSPTYQKLMKTYQHSIEAQLNTLYQHADLLNRHQELQAEVARTTQHLNEINIKLSNEIDCRRAAEQKVEYHKNHDVNTGFLNPIAIHKHVDSLIKSETKFVLLHIHFANSRKIQQEYGYQAFDSLLIEYRSKLTKITDTSVTGRLGSSDILLIIQTDKEKLPQLCQHLSEIGQANYTANEQSLHLQTYVGAVHSKEGISRSDLLQFAYDTVVKCQSLGKTFTIADVSLPTQSSLSEHKIERYLLEAVRNHDLFLNYQPKVCPVNKKWIGCEALLRWNHPHLGAIANDVLIQLAERNGLIYELGNFALRNAIQQASEWILHSPNFVMAVNISAVQLKDPHFVTHIKQLLSLYQLPSKNLELEVTESGLISDEPLAITTLSQLNNMGISIALDDFGTGYASFQYLKKYPFSSLKIDKSFIANIEQNEDDQNIVCAMINIAKKLQLKVVVEGVENQNQEAFVVKEGIDLIQGYLYSKPISATDFEEGLFNQSSIGTPYFHFV | failed |
| MNRKKLQKLTDTLTKNCKHFNKFEVNCLIKLFYDLVGGVERQGLVVGLDRNAFRNILHVTFGMTDDMIMDRVFRGFDKDNDGCVNVLEWIHGLSLFLRGSLEEKMKYCFEVFDLNGDGFISKEEMFHMLKNSLLKQPSEEDPDEGIKDLVEITLKKMDHDHDGKLSFADYELAVREETLLLEAFGPCLPDPKSQMEFEAQVFKDPNEFNDM | failed |
| MLKNLRIRKFEPEEEYVHFTYSIKNSEREKSKELIKEYRTLLQKAIDYLWNLTKIQVRKKNGSYKITLPKKKEVYKPLREELEKINHLASHYVDKAINDAFSILKSWRKRAIKGRASIEKPTLKKAYVRIKTTLRKVVGESVRITVRPYEYITFSWSKSWFSRRVRELELGEPIIKEEKVYLPFRYKLPWVTPVNFLAIDSNLYTLDAYDGEKFVTISLKQLYSLKYSMEVKRAKVQSFASKHTKRGRELMRKYSHRERNRVLDFVHKFVNTLLDLYPMTFFAVEKLNKESMFKDANGSLSRKISRTVWRSIHRVLKYKAPLYGSFVKEVNPHLTSRSCPRCGFVSRKVGKTFECERCGFKLDRQLNASLNIYLKMCGFPHIRDIPRVWVGVIPLMGRRGMNVRDFGEAQGLRIDIKYHEILLEHHHHHH | failed |
| MGHHHHHHSHMSEYLAAADYLPHSAPMVLVDEVIHVDDEHAHCRVAVSREGILAPFLNAQGHLPAWFGIEIIAQTIGVWSGWHGRQSLGLQEKPRPGMLLGGRGYHCQQAIFPAGSLLDVTVMLVMRDEKIGSFEGEIAIDGEKYASGRLNTYQPDDRELNILLEQGKPL | failed |
| MSLSSGRTVPTRSHGLGKEGVSTTGASQVEFGDPELTARINDAMVQVEELLHTELSSGEDFLVDIVMHLTRAGGKRFRPMFALLASEFGEKPLSENVIKAAVVVEITHLATLYHDDVMDEASMRRGVPSANARWDNSVAILAGDILLAHASGLMSQLGTDTVAHFAETFGELVTGQMRETVGPRDTDPIEHYTNVIREKTGVLIASAGYLGAMHAGAAPEHIDALKNFGAAVGMIFQIVDDIIDIFSETHESGKTPGTDLREGVFTLPVLYALREDTPVGAELRDILTGPLEDDETVNHVLELLSQSGGRQAALDEVYRYMDIANAELDRLPDSTVKEALRNLATFTVKRVGEGHHHHHH | not failed |
| MRTVVDYGAAIAFGVAYFVTKDFQKATWVLVAASAAALAIGYAVERRLAMLPLFFGGMALVFGTLGLIFGSDVFVKIKVTVINLALASFLVGGVLLKRQPLKVIMGEALHLPDAAWRTLTLRYGAYFAFVAIINEVVRNTQDTDTWVKFRLALLPVALVFVATQLPFMMKHMAKGDDAKAVEPPDAGF | failed |
| MSKTERDKIKVEMEIDPHLSWQEKLAVEEQEKLSPRLVYEIIRRDGVEELSRPTSTLIFSGITAGLVMSFSFVFKAVIASYLPIDAVWTDLITNIGYTIGFLIAILGHLQLFTENTITTVIPLFKPFSLDKLKAVARLWSIVILTNIFGTALSSLFFLTTDLFSPEVDHALDEIAHHVASFTAWENFLKGVLSGLLIAALVWMLPSVNNKILLIFMITYLIGLGDFTHVVVGSVEVAYLVWQGQTSLSEYFFQFLVPTTLGNIIGGTGIFTLLIYGQVNQELEE | failed |

From a protein production outcome set (Wang et al. 2014)
